Target: human cytomegalovirus (HCMV)-encoded chemokine receptor US28, HA-tagged (human cytomegalovirus (HCMV)) (UniProt P69332)
Chain of UniProt P69332 (P69332 whole entry): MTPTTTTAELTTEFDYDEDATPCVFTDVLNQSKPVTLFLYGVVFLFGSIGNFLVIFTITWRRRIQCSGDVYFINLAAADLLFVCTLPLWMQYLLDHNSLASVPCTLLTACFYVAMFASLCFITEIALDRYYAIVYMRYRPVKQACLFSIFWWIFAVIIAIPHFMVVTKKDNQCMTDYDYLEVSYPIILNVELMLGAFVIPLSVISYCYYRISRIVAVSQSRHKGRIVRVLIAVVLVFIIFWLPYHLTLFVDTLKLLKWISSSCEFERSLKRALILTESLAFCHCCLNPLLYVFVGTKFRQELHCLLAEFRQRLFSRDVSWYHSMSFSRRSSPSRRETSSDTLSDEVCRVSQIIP

**Q.** “recombinant human Fractalkine (from UniProt P78423 25-341) (ligand)” was tested. Which lowest Fractalkine concentration that blocked migration of US28-expressing SMC induced by 40 ng/ml RANTES (competition migration assay) did it give?
**A.** 10 ng/mL
